In US8263074B2, “Fibroblast growth factor receptor-1 inhibitors and methods of treatment thereof” (ImClone LLC, priority 2003, dated 2012):

Experiments:
other FGFRs = experiment: ELISA binding assay
Protocol: (§1) Recombinant FGFRs (R&D systems) at a concentration of 1 μg/ml in PBS were coated on 96-well plates at room temperature for 2 hrs. The plates were washed 3 times with 0.2% Tween20/PBS, and blocked with 5% milk/PBS for 2 hrs before use. FR1-H7 or FR1-A1 was added to the plate and serially diluted in 0.2% Tween20/PBS. The plate was incubated at room temperature for 2 more hrs. The captured antibodies were detected using an anti-human light chain monoclonal antibody conjugated with […] (Pierce Biotechnology, Rockford, Ill.) solution prepared according to supplier's instructions.

FGFR-1(IIIb) = biological target: T1, FGFR-1(IIIb) (Homo sapiens, UniProt P11362); experiment: ELISA binding assay
T1 construct: purchased R&D Systems
Protocol: as §1

[1] = Body weight in C57 black mice; assay type: in vivo; conditions: after 4 treatments
Protocol: The antibodies weight-reducing effects on other strains of mice, C57 black mice and db/db mice were tested (The Jackson Laboratory, Bar Harbor, Me.). The C57 mice were injected with 0.8 mg/kg, 4 mg/kg, and 40 mg/kg antibody and saline on a Monday, Wednesday, Friday, and following Monday rotation schedule with body weights being measured before each injection and on day 9.

FGFR-1(IIIc) = FGFR-1(IIIc) (Homo sapiens, UniProt P11362); experiment: Cell-based blocking assay (125I-FGF-2 binding to FGFR-1(IIIc) expressing L6 cells); design: expressed in transfected cells; host or cells: L6 (ATCC), pBABE retroviral vector; conditions: at 200 nM antibody
Protocol: An FGFR-1(IIIc) expressing cell line was constructed by retro-viral transfecting L6 (ATCC, Manassas, Va.) using a pBABE vector that has a puromycin resistant gene (Invitrogen). Transfected cells were cultured in 10% FBS, DMEM (Invitrogen) in 6-well tissue culture plates until reaching confluency, Before the blocking experiment, cells were serum starved for 8-24 hrs at 37° C. in DMEM medium that contains 0.1% FBS and 5 μg/ml heparin. Before the addition of any reagents, plates were put on ice for 1 hr to minimize receptor internalization. For binding experiment, iodinated recombinant FGF-2 was added at various concentrations to the wells of the plates. For blocking experiments, serially diluted FR1-H7 antibody was added and incubated with the cells on ice for 1 hr before iodinated recombinant FGF-2 was added to each well to a final concentration of 15 ng/ml. Binding was for 1 hr at 0-4° C., after which time the solutions were aspirated and the plates were washed 5 times with ice-cold PBS. Cells were lyzed with 0.5 ml ice-cold cell lysis buffer for 30 minutes. Radioactivity of the cell lysates was detected using a Wizard 1470 automatic gamma counter (Turku, Finland). Non-specific interaction was determined in a binding experiment in which iodinated FGF-2 was incubated with the cells in presence of 200 fold excess of cold ligand.

FGFR-3b = biological target: T2, FGFR-3b (Homo sapiens, UniProt P22607); experiment: BiaCore binding kinetics; conditions: BiaCore kinetic analysis
T2 construct: purchased R&D Systems

FGFR-1 = biological target: T3, FGFR-1 (Homo sapiens, UniProt P11362); experiment: Phosphorylation assay in FGFR-1 expressing L6 cells (western blot); assay type: cell-based; conditions: anti-phospho-tyrosine western blot
T3 construct: expressed in transfected cells; host or cells: L6 (ATCC), pBABE retroviral vector
Protocol: FGFR-1 expressing L6 cells were cultured in 10% FBS, DMEM, in a 24-well tissue culture plate till confluency. Cells were Serum starved in 5 μg/ml heparin, 0.1% FBS, DMEM, for 8-24 hrs. Either FR1-H7 or FR1-A1 was added to the media and allowed to bind with the cell surface receptors at 37° C. for 1 hr. Cells were then stimulated with 20 ng/ml FGFs at 37° C. for 10 min before they were lyzed using ice-cold lysis buffer for 30 min. Cell lysate was subjected to SDS-PAGE followed by western blot. Membranes were probed with anti-phospho-tyrosine antibody (Cell Signaling Technology, Inc., Beverly, Mass.) for detection of phosphorylated FGFR-1 receptors according to supplier's instructions.
The phosphorylation assay for small molecules is essentially the same as the phosphorylation assay described in Examples 7 and 15 and Phosphorylation Assay, except that small molecule compounds was used instead of FGFR-1 antibodies in all occasions. […] Equal amount of cell lysates were applied to each sample lane. Receptor auto-phosphorylation was probed using anti-phospho-tyrosine antibody as described in the original patent.

FGFR-1c = biological target: T4, FGFR-1c (Homo sapiens, UniProt P11362); experiment: BiaCore binding kinetics; conditions: BiaCore biosensor; read-out: Binding Kinetic (Kd), FGFR-1c
T4 construct: purchased R&D Systems

FGFR-3c = biological target: T5, FGFR-3c (Homo sapiens, UniProt P22607); experiment: BiaCore binding kinetics; conditions: BiaCore kinetic analysis
T5 construct: purchased R&D Systems
T5 sequence (P22607 23-806): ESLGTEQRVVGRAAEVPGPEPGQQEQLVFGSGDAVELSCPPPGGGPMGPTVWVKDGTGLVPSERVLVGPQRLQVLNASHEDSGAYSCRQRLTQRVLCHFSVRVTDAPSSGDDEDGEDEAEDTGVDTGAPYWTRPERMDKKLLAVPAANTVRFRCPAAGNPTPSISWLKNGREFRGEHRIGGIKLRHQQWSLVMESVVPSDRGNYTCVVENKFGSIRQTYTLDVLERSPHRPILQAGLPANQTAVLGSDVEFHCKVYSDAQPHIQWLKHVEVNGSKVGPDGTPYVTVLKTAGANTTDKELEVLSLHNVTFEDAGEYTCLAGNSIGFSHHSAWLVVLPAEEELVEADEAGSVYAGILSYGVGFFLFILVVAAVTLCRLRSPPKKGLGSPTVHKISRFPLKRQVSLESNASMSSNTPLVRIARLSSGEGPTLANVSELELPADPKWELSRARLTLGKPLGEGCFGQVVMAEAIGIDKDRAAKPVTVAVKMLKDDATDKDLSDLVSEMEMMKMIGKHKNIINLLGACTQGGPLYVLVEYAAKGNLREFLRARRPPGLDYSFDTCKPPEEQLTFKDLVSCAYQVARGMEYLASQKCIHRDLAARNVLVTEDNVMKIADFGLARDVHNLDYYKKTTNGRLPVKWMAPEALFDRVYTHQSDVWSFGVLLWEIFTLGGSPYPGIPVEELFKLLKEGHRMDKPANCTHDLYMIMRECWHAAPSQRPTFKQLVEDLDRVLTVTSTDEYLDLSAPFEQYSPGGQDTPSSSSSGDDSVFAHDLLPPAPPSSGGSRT

T3 sequence (P11362 22-822): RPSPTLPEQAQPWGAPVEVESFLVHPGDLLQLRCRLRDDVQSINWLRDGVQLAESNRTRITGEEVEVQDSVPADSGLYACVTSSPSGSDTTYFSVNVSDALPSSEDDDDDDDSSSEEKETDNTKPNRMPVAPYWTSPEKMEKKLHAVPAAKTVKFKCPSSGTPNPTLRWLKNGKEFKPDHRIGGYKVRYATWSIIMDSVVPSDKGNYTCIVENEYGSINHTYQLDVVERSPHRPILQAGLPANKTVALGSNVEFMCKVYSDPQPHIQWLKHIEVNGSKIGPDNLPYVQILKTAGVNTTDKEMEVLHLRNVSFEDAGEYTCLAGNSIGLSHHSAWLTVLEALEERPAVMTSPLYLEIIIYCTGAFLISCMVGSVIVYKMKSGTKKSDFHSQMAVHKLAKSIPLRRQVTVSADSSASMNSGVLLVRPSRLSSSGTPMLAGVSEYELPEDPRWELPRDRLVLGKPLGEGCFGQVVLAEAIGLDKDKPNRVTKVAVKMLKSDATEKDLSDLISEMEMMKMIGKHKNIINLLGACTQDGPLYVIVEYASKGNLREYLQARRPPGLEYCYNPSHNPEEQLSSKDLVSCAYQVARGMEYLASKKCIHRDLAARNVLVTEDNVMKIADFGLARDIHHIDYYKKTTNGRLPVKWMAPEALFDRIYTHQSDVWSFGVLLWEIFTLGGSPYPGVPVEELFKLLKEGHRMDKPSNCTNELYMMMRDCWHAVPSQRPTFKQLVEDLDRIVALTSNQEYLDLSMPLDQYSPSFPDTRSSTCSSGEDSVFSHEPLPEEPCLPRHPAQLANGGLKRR
FGFR-1(IIIc), sequence (P11362 22-822): as above
T4 sequence (P11362 22-822): as above
T2 sequence (P22607 23-808 isoform P22607-2 limits assumed): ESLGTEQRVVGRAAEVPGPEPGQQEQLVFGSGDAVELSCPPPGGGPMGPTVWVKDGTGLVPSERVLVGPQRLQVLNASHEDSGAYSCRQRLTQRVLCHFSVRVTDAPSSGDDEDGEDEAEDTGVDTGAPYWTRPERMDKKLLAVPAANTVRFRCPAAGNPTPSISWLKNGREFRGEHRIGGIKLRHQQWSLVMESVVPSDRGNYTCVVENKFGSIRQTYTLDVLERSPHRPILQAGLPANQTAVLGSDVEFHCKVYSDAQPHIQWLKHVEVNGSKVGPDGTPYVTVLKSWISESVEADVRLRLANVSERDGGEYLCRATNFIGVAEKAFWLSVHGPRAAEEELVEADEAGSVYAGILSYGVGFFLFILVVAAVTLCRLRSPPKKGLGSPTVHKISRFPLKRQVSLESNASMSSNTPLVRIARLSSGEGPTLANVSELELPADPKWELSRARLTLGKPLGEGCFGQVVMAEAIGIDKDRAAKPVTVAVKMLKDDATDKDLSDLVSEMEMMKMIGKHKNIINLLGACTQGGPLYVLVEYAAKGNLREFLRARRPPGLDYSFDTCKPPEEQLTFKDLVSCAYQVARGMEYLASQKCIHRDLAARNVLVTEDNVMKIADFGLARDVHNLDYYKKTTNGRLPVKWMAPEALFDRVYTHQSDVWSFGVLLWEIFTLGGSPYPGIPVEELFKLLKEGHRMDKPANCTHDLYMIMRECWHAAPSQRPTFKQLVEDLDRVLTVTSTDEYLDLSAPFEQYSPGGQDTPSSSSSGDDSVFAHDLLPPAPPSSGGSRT
T1 sequence (P11362 22-822 isoform P11362-19 limits assumed): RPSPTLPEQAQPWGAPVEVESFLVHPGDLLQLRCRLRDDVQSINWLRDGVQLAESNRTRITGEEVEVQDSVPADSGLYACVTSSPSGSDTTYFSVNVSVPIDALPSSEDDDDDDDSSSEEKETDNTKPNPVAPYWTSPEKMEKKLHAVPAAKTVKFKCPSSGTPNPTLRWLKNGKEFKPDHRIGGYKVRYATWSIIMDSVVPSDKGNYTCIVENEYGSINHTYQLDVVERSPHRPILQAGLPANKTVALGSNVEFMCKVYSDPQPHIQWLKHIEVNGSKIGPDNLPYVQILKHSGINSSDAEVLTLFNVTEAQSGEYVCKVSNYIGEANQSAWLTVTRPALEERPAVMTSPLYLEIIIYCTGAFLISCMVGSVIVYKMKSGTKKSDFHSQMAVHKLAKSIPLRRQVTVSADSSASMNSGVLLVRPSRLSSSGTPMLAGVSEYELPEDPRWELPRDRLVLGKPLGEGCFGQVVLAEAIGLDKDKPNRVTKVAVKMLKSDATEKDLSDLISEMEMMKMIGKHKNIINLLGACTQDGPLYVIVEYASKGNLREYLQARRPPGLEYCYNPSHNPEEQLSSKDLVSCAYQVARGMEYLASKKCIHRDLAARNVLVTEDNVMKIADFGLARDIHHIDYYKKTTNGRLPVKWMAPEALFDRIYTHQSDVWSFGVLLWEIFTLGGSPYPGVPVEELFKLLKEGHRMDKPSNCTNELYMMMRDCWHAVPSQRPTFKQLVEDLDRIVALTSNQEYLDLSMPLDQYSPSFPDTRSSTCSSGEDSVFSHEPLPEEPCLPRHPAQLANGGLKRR

B1: FR1-H7: human monoclonal antibody from phage Fab library, specific for FGFR-1(IIIb) and/or FGFR-1(IIIc), and/or FGFR-4(IIIc); VH/VL SEQ ID NOS:7, 8 (antibody, listed as Homo sapiens)
VH: MAEVQLVQSGAEVKKPGASVKVSCKVSGYTFTDYYMHWVQQAPGKGLEWMGLVDPEDGETIYAEKFQGRVTITADTSTDTAYMELSSLRSEDTAVYYCARDDYMDVWGKGTLVTVSSASTKGP
VL: LETTLTQSPDTLSLSPGEGATLSCRASQSVSGSALAWYQQKPGQAPRLLIYDASSRATGVPDRFSGSGSGADFSLTISRLEPEDFAVYSCQQYGSSPLTFGPGTKVDVKRTVAAPSVFIFPPSDEQLKSGTASVVCLLNNFYPREAKVQWKVD
binding to the other FGFRs (other FGFRs): does not recognize | binding to FGFR-1(IIIb) (FGFR-1(IIIb)): strong affinities | weight reduction compared to the starting weights ([1]; 0.8 mg/kg): approximately 5% | weight reduction compared to the starting weights ([1]; 4 mg/kg): ~16% | weight reduction compared to the starting weights ([1]; 40 mg/kg): ~16% | blocking of specific 125I-FGF-2 binding to the cells (FGFR-1(IIIc)): near completion | Kd (FGFR-3b): > 1000 nM | inhibition of ligand (FGF) mediated receptor phosphorylation (FGFR-1; antibody): significantly inhibits | receptor activation by the antibody by itself (FGFR-1; no ligand): does not activate the receptor | Kd (FGFR-1c): 0.04 nM | Kd (FGFR-3c): > 1000 nM
